Patent publication US20080242590A1, “New Method 706” (ASTRAZENECA AB, priority 2007, published 2008)

Columns and labels:
Aβ 1-42 [1] = assay: Degradation of Aβ 1-42 in APPswe-tg mouse plasma pool (Example 28); assay type: biochemical; conditions: room temperature, 1 hour
Description: Mouse plasma collected from 9 animals was stored at −70° C. Plasma was thawed and pooled just before the experiment. Aβ 1-40 and 1-42 in plasma pool was degraded by human Fc-Nep or mouse Fc-Nep with corresponding vehicles (50 mM Tris-HCl, 150 mM NaCl pH 7.5). The following final concentrations of the Fc-Nep constructs were used, 100, 32, 10, 3.2, 1, 0.3, 0.1 and […] and the degradation occurred at room temperature for 1 hour while shaking on an orbital shaker. The enzymatic reaction was stopped by adding Phosphoramidone (10 μM final concentration).
After degradation, a final concentration of 4.7 mM EDTA was added to the tg-mouse plasma tubes and the plasma samples were diluted 3 times in sample diluent, before the concentration of Aβ42 was analyzed using ELISA kit Innotest® β-Amyloid1-42 (Innogenetics, lot#177462, ref#80177) according to the manufacturers instructions. The highest concentration (100 μg/ml) of human Fc-Nep and mouse Fc-Nep degraded human plasma amyloid β 1-40 by 71% and 77%, respectively and Aβ 1-42 by 34% and 53%, respectively, as compared to plasma without Fc-Nep treatment.

[2] = Observations of animal health (Example 26); assay type: in vivo, APPSWE-tg mice and C57BL/6 mice; conditions: 5 or 25 mg/kg single i.v., up to 336 hours
Description: (§1) 21-23 weeks old female APPSWE-tg mice and 24 weeks old female C57BL/6 mice (6 mice/group) received vehicle or mFc-Nep at 5 or 25 mg/kg as a single intravenous injection and Aβ40 was analysed at different time points after injection (between 1.5-336 hours, i.e., up to 2 weeks). M-550426 was administrated per orally at 300 μmol/kg 3 hours before termination. For both mouse models, APPSWE-tg and C57BL/6, a positive control and blank groups were included. The following groups were included for the APPSWE-tg mice: 25 mg/kg: 1.5, 72, 168 and 336 hours; 5 mg/kg): 336 hours (2 weeks). For C57BL/6 mice: 25 mg/kg: 168 and 336 hours; 5 mg/kg): 1.5, 168 and 336 hours. […] Blood collection and plasma processing were basically as described in Example 25 The analysis of mouse Aβ40 levels in plasma of C57BL6 mice was as described in Example 25 The analysis of human Aβ40 and Aβ42 levels in plasma of APPSWE-tg mice was as described in Example 25 (as described in the last APP-tg study).

amyloid β 1-40 [3] = assay: Degradation of Aβ 1-40 in human plasma pool (Example 28); assay type: biochemical; conditions: room temperature, 1 hour
Description: (§2) Blood from twelve individuals (6 females and 6 males) were collected into pre-chilled heparin-plasma tubes at the healthcare centre (AstraZeneca) at three different time points. Plasma was prepared by centrifugation at 2500×g for 20 min at 4° C. Plasma samples were collected and transferred to pre-chilled polypropylene tubes and immediately frozen and stored at −70° C. prior to use. Plasma was thawed and pooled from 12 individuals just before the experiment. Aβ 1-40 and 1-42 in plasma pool was degraded by human Fc-Nep or mouse Fc-Nep with corresponding vehicles (50 mM Tris-HCl, 150 mM NaCl pH 7.5). The following final concentrations of the Fc-Nep constructs were used, 100, 32, 10, 3.2, 1, 0.3, 0.1 and […] and the degradation occurred at room temperature for 1 hour while shaking on an orbital shaker. The enzymatic reaction was stopped by adding Phosphoramidone (10 μM final concentration). Concentration of amyloid β 1-40 in human plasma pool was measured using ELISA kit (Biosource; KHB3481) according to the manufacturers instructions.

Aβ 1-42 [4] = assay: Degradation of Aβ 1-42 in human plasma pool (Example 28); assay type: biochemical; conditions: room temperature, 1 hour
Description: as §2
A final concentration of 4.7 mM EDTA was added to the tubes before the concentration of Aβ42 was analyzed using ELISA kit Innotest® β-Amyloid1-42 (Innogenetics, lot#177462, ref#80177) according to the manufacturers instructions.

human Aβ42 = assay: Human Aβ42 in plasma, time-response after single i.v. dose (Example 26); assay type: in vivo, APPSWE-tg mice; conditions: 25 mg/kg single i.v.
mouse Aβ40 = assay: Mouse Aβ40 in plasma, time-response after single i.v. dose (Example 26); assay type: in vivo, C57BL/6 mice; conditions: 25 mg/kg single injection, 2 weeks (336 hours)
Excerpt: (§3) The objective of this study was to evaluate the time-response relationship of the mouse version of the Fc-Nep (mFc-Nep, SEQ ID NO 14) in plasma of female APPSWE-tg mice and C57BL/6 mice after a single dose. The specific purpose is to find out how long the reducing effect of mFc-Nep on Aβ stays in the plasma, and to correlate the effect to the level of exposure of test compound in plasma. The γ-secretase inhibitor M-550426 is included as a positive compound.
(§4) 21-23 weeks old female APPSWE-tg mice and 24 weeks old female C57BL/6 mice (6 mice/group) received vehicle or mFc-Nep at 5 or 25 mg/kg as a single intravenous injection and Aβ40 was analysed at different time points after injection (between 1.5-336 hours, i.e., up to 2 weeks). M-550426 was administrated per orally at 300 μmol/kg 3 hours before termination. For both mouse models, APPSWE-tg and C57BL/6, a positive control and blank groups were included. The following groups were included for the APPSWE-tg mice: 25 mg/kg: 1.5, 72, 168 and 336 hours; 5 mg/kg): 336 hours (2 weeks). For C57BL/6 mice: 25 mg/kg: 168 and 336 hours; 5 mg/kg): 1.5, 168 and 336 hours. […]

[5] = Plasma exposure in C57BL/6 mice (Example 26); assay type: in vivo; conditions: 25 mg/kg single injection
Description: as §1

human Aβ40 = assay: Human Aβ40 in plasma, time-response after single i.v. dose (Example 26); assay type: in vivo, APPSWE-tg mice; conditions: 25 mg/kg single i.v.
Excerpt: as §3, §4

[6] = Plasma exposure in APPSWE-tg mice (Example 26); assay type: in vivo; conditions: single intravenous injection of 25 mg/kg
Description: as §1

amyloid β 1-40 [7] = assay: Degradation of Aβ 1-40 in APPswe-tg mouse plasma pool (Example 28); assay type: biochemical; conditions: room temperature, 1 hour
Description: Mouse plasma collected from 9 animals was stored at −70° C. Plasma was thawed and pooled just before the experiment. Aβ 1-40 and 1-42 in plasma pool was degraded by human Fc-Nep or mouse Fc-Nep with corresponding vehicles (50 mM Tris-HCl, 150 mM NaCl pH 7.5). […] The enzymatic reaction was stopped by adding Phosphoramidone (10 μM final concentration).
After degradation, before concentration of amyloid β 1-40 in tg-mouse plasma pool was measured using ELISA kit (Biosource; KHB3481), the plasma samples were diluted 20 times in standard diluent buffer, according to manufacturers instructions.

[8] = highest concentration 100 μg/ml

B1: mFc-Nep: mouse version of the Fc-Nep, SEQ ID NO 14 (protein, listed as Mus musculus)
chain: METDTLLLWVLLLWVPGSTGDVPRDCGCKPCICTVPPVSSVFIFPPKPKDVLTITLTPKVTCVVVAISKDDPEVQFSWFVDDVEVHTAQTQPREEQFASTFRSVSELPIMHQDWLNGKEFKCRVNSAAFPAPIEKTISKTKGRPKAPQVYTIPPPKEQMAKDKVSLTCMITDFFPEDITVEWQWNGQPAENYKNTQPIMNTNGSYFVYSKLNVQKSNWEAGNTFTCSVLHEGLHNHHTEKSLSHSPGKYDDGICKSSDCIKSAARLIQNMDASVEPCTDFFKYACGGWLKRNVIPETSSRYSNFDILRDELEVILKDVLQEPKTEDIVAVQKAKTLYRSCINESAIDSRGGQPLLKLLPDIYGWPVASDNWDQTYGTSWTAEKSIAQLNSKYGKKVLINFFVGTDDKNSTQHIIHFDQPRLGLPSRDYYECTGIYKEACTAYVDFMISVARLIRQEQSLPIDENQLSLEMNKVMELEKEIANATTKPEDRNDPMLLYNKMTLAKLQNNFSLEVNGKSFSWSNFTNEIMSTVNINIQNEEEVVVYAPEYLTKLKPILTKYSPRDLQNLMSWRFIMDLVSSLSRNYKESRNAFRKALYGTTSETATWRRCANYVNGNMENAVGRLYVEAAFAGESKHVVEDLIAQIREVFIQTLDDLTWMDAETKKKAEEKALAIKERIGYPDDIISNENKLNNEYLELNYREDEYFENIIQNLKFSQSKQLKKLREKVDKDEWISGAAVVNAFYSSGRNQIVFPAGILQPPFFSAQQSNSLNYGGIGMVIGHEITHGFDDNGRNFNKDGDLVDWWTQQSANNFKDQSQCMVYQYGNFSWDLAGGQHLNGINTLGENIADNGGIGQAYRAYQNYVKKNGEEKLLPGLDLNHKQLFFLNFAQVWCGTYRPEYAVNSIKTDVHSPGNFRIIGTLQNSAEFADAFHCRKNSYMNPERKCRVW
Q: For B1, which “Degradation of Aβ 1-42 compared to plasma without treatment” value (Aβ 1-42 [1]; [8]) is on record?
A: 53%

Q: And the EC50 (Aβ 1-42 [1])?
A: 820 nM

Q: What about the “Observations of the animal health” value [2] of the same molecule?
A: no overt adverse effects

Q: And the “Degradation of amyloid β 1-40 compared to plasma without treatment” value (amyloid β 1-40 [3]; [8])?
A: 71%

Q: And the EC50 (amyloid β 1-40 [3])?
A: 400 nM

Q: What about the “Degradation of Aβ 1-42 compared to plasma without treatment” value (Aβ 1-42 [4]; [8]) of the same molecule?
A: 19%

Q: What about the EC50 (Aβ 1-42 [4]) of the same molecule?
A: 180 nM

Q: And the “Aβ42 levels compared to vehicle” value (human Aβ42; 1.5 hours)?
A: 87%

Q: What about the “Aβ42 levels compared to vehicle” value (human Aβ42; two weeks (336 hours)) of the same molecule?
A: 44%

Q: What about the “Reduction of mouse Aβ40 levels in plasma compared to vehicle” value (mouse Aβ40) of the same molecule?
A: 73%

Q: What about the plasma half-life [5] of the same molecule?
A: long

Q: And the Plasma exposure ([5]; 336 hours)?
A: 48 µg/mL

Q: And the “Aβ40 levels compared to vehicle” value (human Aβ40; 1.5 hours)?
A: 91%

Q: What about the “Aβ40 levels compared to vehicle” value (human Aβ40; two weeks (336 hours)) of the same molecule?
A: 58%

Q: And the Plasma exposure ([6]; 1.5 hours)?
A: 299 µg/mL

Q: What about the Plasma exposure ([6]; 336 hours) of the same molecule?
A: 60 µg/mL

Q: And the “Degradation of amyloid β 1-40 compared to plasma without treatment” value (amyloid β 1-40 [7]; [8])?
A: 77%

Q: What about the EC50 (amyloid β 1-40 [7]) of the same molecule?
A: 340 nM
